Where no end group is shown, it is not given here.

In assay [1] the target is human CD137 expressed on cells (human, UniProt Q07011 24-255). Briefly: cell-based or functional assay.
The target in assay [2] is T1, biotin-labeled human CD137 fused to human IgG1 Fc fragment (human, biotin-labeled).
T1 construct: also called human CD137-Fc; biotin-human CD137-Fc
Briefly: ECL, IgG with biotinylated antigen.
Experimental: Antigen binding of each molecule was tested by the electrochemiluminescence method (ECL method). […] A TBST solution containing 0.5% BSA was added at 150 micro L/well to streptavidin plate (MSD K. K., L15SA-1), and the plate was incubated overnight at 4 degrees C. After removal of the blocking solution, each well was washed three times with 250 micro L of a TBST solution.

The target of assay [3] is T2, CD3 epsilon peptide antigen (human, also: biotin-labeled as coated antigen, free as competitor, biotin position not given here).
T2 construct: also called biotin-labeled CD3 epsilon peptide; CD3 peptide
T2 peptide: QDGNEEMGGITQTPY
Briefly: ECL, IgG with biotinylated antigen.

Assay [4] has as its target T3, biotin-labeled cynomolgus monkey CD137 fused to human IgG1 Fc fragment (cynomolgus monkey, UniProt Q07011 24-186 (human entry), limits assumed, biotin-labeled).
T3 construct: the assay used the fusion to human IgG1 Fc; also called cyno CD137-Fc
T3 chain: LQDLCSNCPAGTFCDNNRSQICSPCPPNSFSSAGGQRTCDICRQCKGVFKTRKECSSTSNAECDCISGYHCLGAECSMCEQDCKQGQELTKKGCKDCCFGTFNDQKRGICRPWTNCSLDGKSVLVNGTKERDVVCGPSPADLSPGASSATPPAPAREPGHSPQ
The experiment in a line: beads ELISA, biotin labeled cyno CD137-Fc. On the technique in general: An ELISA detects its analyte on a solid surface through an enzyme-linked reagent.
Experimental: First, 20 micro g of Streptavidin-coated magnetic beads MyOne-T1 beads was washed three-times with blocking buffer including 0.5× block Ace, 0.02% Tween and 0.05% ProClin 300 and then blocked with this blocking buffer at room temperature for 60 minutes or more. […] After that each well was washed with TBST. […] The plate was incubated for one hour. […] 2 minutes later the fluorescence of each well was detected.

For another assay, the target named is T4, recombinant human CD137 (human, UniProt Q07011 24-186).
T4 construct: also called hCD137
The experiment in a line: SPR (Biacore T200, 37 degrees C), antibody captured by anti-human Fc, antigen as analyte, 1:1 model. (Surface plasmon resonance follows binding to a sensor surface in real time, without labels.)

The next assay concerns the target T5, recombinant human CD3 (human, UniProt P07766 23-126).
T5 construct: also called hCD3
Described as above.

Assay [5] concerns the target T2, CD3 epsilon peptide antigen. The experiment in a line: ELISA, IgG supernatant, biotinylated antigen on streptavidin plate.

T5 sequence (P07766 23-126): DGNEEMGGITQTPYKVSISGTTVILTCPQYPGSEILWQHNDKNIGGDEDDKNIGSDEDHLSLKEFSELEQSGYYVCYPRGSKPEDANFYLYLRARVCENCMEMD
T4 sequence (Q07011 24-186 limits assumed): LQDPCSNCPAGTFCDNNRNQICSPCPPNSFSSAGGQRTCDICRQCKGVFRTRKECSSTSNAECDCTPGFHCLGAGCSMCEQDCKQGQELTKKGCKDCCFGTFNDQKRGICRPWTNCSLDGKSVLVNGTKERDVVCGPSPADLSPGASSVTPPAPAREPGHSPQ
human CD137 expressed on cells, sequence (Q07011 24-255): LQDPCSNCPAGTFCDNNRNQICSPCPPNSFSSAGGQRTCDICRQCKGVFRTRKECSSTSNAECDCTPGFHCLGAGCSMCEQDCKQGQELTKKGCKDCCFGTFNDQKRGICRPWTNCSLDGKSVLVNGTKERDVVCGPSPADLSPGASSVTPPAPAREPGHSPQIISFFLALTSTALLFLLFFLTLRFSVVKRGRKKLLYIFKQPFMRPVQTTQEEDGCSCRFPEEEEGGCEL
T1 sequence (chain, as listed by the source limits assumed): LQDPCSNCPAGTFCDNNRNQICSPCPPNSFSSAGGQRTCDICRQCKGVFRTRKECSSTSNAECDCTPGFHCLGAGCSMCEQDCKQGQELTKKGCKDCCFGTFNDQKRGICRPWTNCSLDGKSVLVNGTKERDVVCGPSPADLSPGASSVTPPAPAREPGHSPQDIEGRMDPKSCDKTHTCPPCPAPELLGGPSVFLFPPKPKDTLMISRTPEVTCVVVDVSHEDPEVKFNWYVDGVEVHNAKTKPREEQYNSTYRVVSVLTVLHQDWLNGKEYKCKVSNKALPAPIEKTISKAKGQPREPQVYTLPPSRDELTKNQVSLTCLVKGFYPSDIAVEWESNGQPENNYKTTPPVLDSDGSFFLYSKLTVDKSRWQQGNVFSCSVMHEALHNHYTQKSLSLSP
Experimental for recombinant human CD137: (§1) Binding affinity of trispecific antibodies to human CD3 and CD137 were assessed at 37 degrees C. using Biacore T200 instrument (GE Healthcare). Anti-human Fc antibody (GE Healthcare) was immobilized onto all flow cells of a CM4 sensor chip using amine coupling kit (GE Healthcare). Antibodies were captured onto the anti-Fc sensor surfaces, then recombinant human CD3 or CD137 was injected over the flow cell. All antibodies and analytes were prepared in ACES pH 7.4 containing 20 mM ACES, 150 mM NaCl, 0.05% Tween 20, 0.005% NaN3. Sensor surface was regenerated each cycle with 3M MgCl2.
Experimental for recombinant human CD3: as §1

B1: GPC3/CD137 × CD3 (other)
VH 1: QVQLQQWGAGLLKPSETLSLTCAVYGGSFSGYYWSWIRQSPEKGLEWIGEINHGGYVTYNPSLESRVTISVDTSKNQFSLKLSSVTAADTAVYYCARDYGPGNYDWYFDLWGRGTLVTVSS
VL 1: EIVLTQSPATLSLSPGERATLSCRASQSVSSYLAWYQQKPGQAPRLLIYDASNRATGIPARFSGSGSGTDFTLTISSLEPEDFAVYYCQQRSNWPPALTFGGGTKVEIK
VH 2: QVQLVESGGGLVQPGRSLRLSCAASGFTFSNAWMHWVRQAPGKGLEWVAQIKDRANSYNTYYAESVKGRFTISRDDSKNSIYLQMNSLKTEDTAVYYCRYVHYTTYAGSSFSYGVDAWGQGTTVTVSS
VL 2: DIVMTQSPLSLPVTPGEPASISCRSSQPLVHSNRNTYLHWYQQKPGQAPRLLIYKVSNRFSGVPDRFSGSGSGTDFTLKISRVEAEDVGVYYCGQGTQVPYTFGQGTKLEIK
VH 3: QVQLVQSGAEVKKPGASVTVSCKASGYTFTDYEMHWIRQPPGEGLEWIGAIDGPTPDTAYSEKFKGRVTLTADKSTSTAYMELSSLTSEDTAVYYCTRFYSYTYWGQGTLVTVSS
VL 3: DIVMTQSPLSLPVTPGEPASISCRSSQPLVHSNRNTYLHWYQQKPGQAPRLLIYKVSNRFSGVPDRFSGSGSGTDFTLKISRVEAEDVGVYYCGQGTQVPYTFGQGTKLEIK
For the molecule B1, in assay [1], the “Luminescence against CD137 positive cells relative to that against GPC3 positive cells, 1 nM” value is roughly 107% and the “Luminescence against CD137 positive cells relative to that against GPC3 positive cells, 10 nM” value is roughly 128%.

B2: dBBDu_011 (antibody, V domains shown)
VH: QVQLVESGGGLVQPGRSLRLSCAASGFTFSNAWMHWVRQAPGKGLEWVAQIKDKSSLYNTYYAPSVKGRFTISRDDSKNSIYLQMNSLKTEDTAVYYCRYVHYGASYGFLFAGYGVDAWGQGTTVTVSS
VL: DIVMTQSPLSLPVTPGEPASISCRSSQSLVHSNRNTYLHWYQQKPGQAPRLLIYKVSNRFSGVPDRFSGSGSGTDFTLKISRVEAEDVGVYYCGQGTQVPYTFGQGTKLEIK
notes: Converted to IgG: VH joined to human IgG1 constant domains; also called clone 011
With B2, the binding result in assay [2] and in assay [3] was “binds” in each case.

B3: DADU01_3 #001 (antibody, human IgG1, V domains shown)
VH: QVQLVESGGGLVQPGRSLRLSCAASGFTFSIAWMHWVRQAPGKGLEWVAQIKDRVNAYEAYYAPSVKGRFTISRDDSKNSIYLQMNSLKTEDTAVYYCRYVHYASYYDLLGYGGVDAWGQGTTVTVSS
VL: DIVMTQSPLSLPVTPGEPASISCRSSQSLVHSNRNTYLHWYQQKPGQAPRLLIYKVSNRFSGVPDRFSGSGSGTDFTLKISRVEAEDVGVYYCGQGTQVPYTFGQGTKLEIK
notes: VH in human IgG1 CH1-Fc plasmid; GLS3000 light chain; also called dBBDu_126; dBBDu126
Consider B3, for which, in assay [4], the binding result is “no binding (tested: 25 micro L of 50 ng/micro L purified IgG)”.

B4: GPC3/CD137xCD3 trispecific antibody (other)
VH 1: QVQLQQWGAGLLKPSETLSLTCAVYGGSFSGYYWSWIRQSPEKGLEWIGEINHGGYVTYNPSLESRVTISVDTSKNQFSLKLSSVTAADTAVYYCARDYGPGNYDWYFDLWGRGTLVTVSS
VL 1: EIVLTQSPATLSLSPGERATLSCRASQSVSSYLAWYQQKPGQAPRLLIYDASNRATGIPARFSGSGSGTDFTLTISSLEPEDFAVYYCQQRSNWPPALTFGGGTKVEIK
VH 2: QVQLVESGGGLVQPGRSLRLSCAASGFTFSNAWMHWVRQAPGKGLEWVAQIKDRANSYNTYYAESVKGRFTISRDDSKNSIYLQMNSLKTEDTAVYYCRYVHYTTYAGSSFSYGVDAWGQGTTVTVSS
VL 2: DIVMTQSPLSLPVTPGEPASISCRSSQPLVHSNRNTYLHWYQQKPGQAPRLLIYKVSNRFSGVPDRFSGSGSGTDFTLKISRVEAEDVGVYYCGQGTQVPYTFGQGTKLEIK
VH 3: QVQLVQSGAEVKKPGASVTVSCKASGYTFTDYEMHWIRQPPGEGLEWIGAIDGPTPDTAYSEKFKGRVTLTADKSTSTAYMELSSLTSEDTAVYYCTRFYSYTYWGQGTLVTVSS
VL 3: DIVMTQSPLSLPVTPGEPASISCRSSQPLVHSNRNTYLHWYQQKPGQAPRLLIYKVSNRFSGVPDRFSGSGSGTDFTLKISRVEAEDVGVYYCGQGTQVPYTFGQGTKLEIK
notes: Made by Fab-arm exchange of mAb A (CrossMab, each arm carrying Fv A1 and Fv A2) with mAb B (conventional IgG); Fc is Fc gamma R silent (L235R, G236R, S239K) and deglycosylated (N297A); also called GPC3/CD137 × CD3; anti-GPC3/CD137×CD3
As usually defined, the Kd is the constant that tells how readily two partners part at equilibrium. As usually defined, the koff is the rate constant with which the complex falls apart. For orientation: kon means the second-order rate constant of association. For B4, in the assay with recombinant human CD137, the Kd stood at 37.7 nM, the koff turned out to be 0.0206 s⁻¹ and the kon came out at 547000 M⁻¹ s⁻¹. For the same molecule, in the assay with recombinant human CD3, the Kd amounted to 19.7 nM, the koff was 0.00161 s⁻¹ and the on-rate constant (kon) is 81800 M⁻¹ s⁻¹.

B5: dBBDu_115 (antibody, IgG1, V domains shown)
VH: QVQLVESGGGLVQPGRSLRLSCAASGFTFSNAWMHWVRQAPGKGLEWVAQIKDKANSYNTYYAPSVKGRFTISRDDSKNSIYLQMNSLKTEDTAVYYCRYVHYGSSYGFLFAGYGVDAWGQGTTVTVSS
VL: DIVMTQSPLSLPVTPGEPASISCRSSQSLVHSNRNTYLHWYQQKPGQAPRLLIYKVSNRFSGVPDRFSGSGSGTDFTLKISRVEAEDVGVYYCGQGTQVPYTFGQGTKLEIK
notes: IgG1 format with GLS3000 light chain
For the molecule B5, the binding result in assay [5] is given as “binds”.

The record behind these values is patent US20240270846A1 (published 2024).
